Laboratory results as given in PMC5893359 (Cancer cell, 2018).

Assays:
[1] = molecular target: epidermal growth factor receptor, endogenous in A431 cell lysate (human (endogenous in A431)) (UniProt P00533); assay: ELISA
[2] = molecular target: epidermal growth factor receptor, endogenous in A431 cell lysate (human (endogenous in A431), UniProt P00533 25-1210); assay: ELISA

Kd [1] | Kd [2] | Molecule
217 nM |  | amphiregulin, recombinant (from UniProt P15514 20-187) (ligand)
 | 885 nM | bovine RNase A (enzyme, UniProt P61823 27-150, looked up) KETAAAKFERQHMDSSTSAASSSNYCNQMMKSRNLTKDRCKPVNTFVHESLADVQAVCSQKNVACKNGQTNCYQSYSTMSITDCRETGSSKYPNCAYKTTQANKHIIVACEGNPYVPVHFDASV
